Sequences and labels used below:
B1: RAP d3 (ligand, not shown: small tags and cut ends)
chain: LDRLRRVSHQGYSTEAEFEEPRVIDLWDLAQSANLTDKELEAFREELKHFEAKIEKHNHYQKQLEIAHEKLRHAESVGDGERVSRSREKHALLEGRTKELGYTVKKHLQDLSGRISRAR
notes: also called wild-type RAP d3

The target in assay [1] is T1, LRP2 CR89 Y1042W V1047D R1088D (human, UniProt P98164 1022-1105).
T1 construct: also called WDWD
T1 sequence: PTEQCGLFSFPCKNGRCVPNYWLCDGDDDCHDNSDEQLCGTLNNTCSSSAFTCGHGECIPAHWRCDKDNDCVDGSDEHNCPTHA
In words: solid-phase binding assay, CR protein coated, anti-RAP detection. The procedure:
(§1) Solid phase binding assays—Purified, refolded CR protein (1 μg) was bound to Nunc Maxisorp™ 96-well plates in TBS pH 8 supplemented with 5 mM CaCl₂ (TBSC) overnight at 4° C. Wells were washed with TBSC and then blocked with TBSC containing 2% bovine serum albumin (BSA). RAP ligands were then incubated with the immobilized receptor at a range of concentrations for 2 hours in the above blocking buffer supplemented with 0.05% Tween-20 at room temperature. Control wells contained no added ligand. As an additional control, to determine whether the absence of calcium affected binding, 10 mM EGTA was included in the incubation medium for some samples. Wells were washed with TBSTC and bound ligands detected with polyclonal anti-RAP (BP41/42, 1:1,000, BioMarin). Excess primary antibody was removed and wells washed before incubation with the secondary antibody, HRP-conjugated goat anti rabbit IgG (Bio-Rad). After washing, TMB substrate solutions (Bio-Rad) were added to detect HRP. Color development was stopped with 1N HCl. Absorption at 450 nm was measured with a microplate spectrophotometer (Molecular Devices). Data were plotted and Kd values derived by non-linear regression with the assumption of single-site binding (GraphPad Prism).
(§2) One premise of this work was that amino acids at A, C, A′ and C′ within the calcium-binding loops of a CR pair were key determinants of binding affinity for RAP and would be similarly important for binding of RAP variants. To test this idea, mutant LRP2 CR89 were prepared in which the native, non-canonical residues at these positions were sequentially substituted with the non-native, canonical residues. As defined above, the A, C, A′, C′ string for LRP2 CR89 is YVWR. Mutants included LRP2 CR89 Y1042W (WVWR), LRP2 CR89 V1047D (YDWR), LRP2 CR89 R1088D (YVWD), LRP2 CR89 V1047D R1088D (YDWD), LRP2 CR89 Y1042W V1047D R1088D (WDWD), LRP2 CR89 Y1042W V1047D (WDWR), LRP2 CR89 Y1042W R1088D (WVWD). Binding to both RAP d3 and MegaRAP1 d3 were measured for each LRP2 CR89 mutant by solid-phase assay.

For assay [2], the target named is T2, LRP2 CR89 (human, UniProt P98164 1025-1102).
T2 construct: domain: CR89; also called YVWR; not shown: N-terminal hexahistidine and S-peptide of pET30(+)a
Described as above. The procedure:
as §1, §2

For assay [3], the target named is T3, LRP2 CR89 Y1042W R1088D (human, UniProt P98164 1022-1105).
T3 construct: also called WVWD
T3 sequence: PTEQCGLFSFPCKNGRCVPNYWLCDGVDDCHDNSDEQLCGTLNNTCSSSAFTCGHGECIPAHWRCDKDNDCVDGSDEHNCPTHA
Described as above. The procedure:
as §1, §2

Assay [4] deals with T4, LRP2 CR89 V1047D R1088D (human, UniProt P98164 1022-1105).
T4 construct: also called YDWD
T4 sequence: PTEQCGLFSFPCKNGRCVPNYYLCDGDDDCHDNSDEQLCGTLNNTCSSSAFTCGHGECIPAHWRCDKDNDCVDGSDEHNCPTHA
The assay is described as above. The procedure: as §1, §2

In assay [5] the target is T5, LRP2 CR89 Y1042W (human, UniProt P98164 1022-1105).
T5 construct: also called WVWR
T5 sequence: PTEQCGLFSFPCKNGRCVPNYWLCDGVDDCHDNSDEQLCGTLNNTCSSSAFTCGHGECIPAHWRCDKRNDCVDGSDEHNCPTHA
Described as above. The procedure:
as §1, §2

Assay [6] concerns the target T6, LRP2 CR89 V1047D (human, UniProt P98164 1022-1105).
T6 construct: also called YDWR
T6 sequence: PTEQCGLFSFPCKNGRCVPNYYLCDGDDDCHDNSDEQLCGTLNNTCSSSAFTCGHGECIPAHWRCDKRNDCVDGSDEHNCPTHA
Described as above. The procedure: as §1, §2

Assay [7] addresses T7, LRP2 CR89 R1088D (human, UniProt P98164 1022-1105).
T7 construct: also called YVWD
Described as above. The procedure: as §1, §2

Assay [8] addresses T8, LRP1 CR3-5 (human, UniProt Q07954 852-973).
T8 construct: range 852-973; not shown: N-terminal hexahistidine and S-peptide of pET30(+)a
Described as above. The procedure: as §1

In assay [9] the target is T8, LRP1 CR3-5. Described as above. The procedure: (§3) Wells were washed with TBSTC and bound ligands detected with polyclonal anti-RAP (BP41/42, 1:1,000, BioMarin). Excess primary antibody was removed and wells washed before incubation with the secondary antibody, HRP-conjugated goat anti rabbit IgG (Bio-Rad). After washing, TMB substrate solutions (Bio-Rad) were added to detect HRP. Color development was stopped with 1N HCl. Absorption at 450 nm was measured with a microplate spectrophotometer (Molecular Devices). Data were plotted and Kd values derived by non-linear regression with the assumption of single-site binding (GraphPad Prism).
(§4) Next, the binding of RAP d3 and MegaRAP1 d3 proteins to LRP1 CR3-5 and LRP2 CR89 was assessed. […] In all cases, 10 mM EGTA prevented binding of both RAP d3 and MegaRAP1 d3 to CR proteins. Since calcium was the only divalent metal ion present in the binding buffer, this observation is consistent with both RAP d3 and MegaRAP1 d3 binding to calcium-loaded CR pairs. […] Therefore, wild-type RAP d3 and MegaRAP1 d3 have inverted binding preferences for these two receptor fragments.
The source holds these as a separate data set.

Assay [10] has as its target T2, LRP2 CR89. Described as above. The procedure:
as §3, §4
The source holds these as a separate data set.

For assay [11], the target named is T9, VLDLR CR6-8 (human, UniProt P98155 235-358).
T9 construct: range 235-358; not shown: N-terminal hexahistidine and S-peptide of pET30(+)a
The description is as above. The source says:
(§5) Alternatively, the affinity differences between MegaRAP I d3 and MegaRAP1 d3 E270K may have been insufficient to alloW the latter to predominate upon iterative panning. A double revertant, T213S, E270K, had binding behavior that was not distinguishable from MegaRAP1 d3 in our assays. […] The binding behavior of the K251E, E270K double revertant implies a strong dependence of the affinity of MegaRAP1 d3 for LRP2 CR89 on the E251K mutation. […] Therefore, the K256A mutation in MegaRAP1 d3 is a crucial determinant of the ability of this variant to discriminate between the two receptor fragments, exerting its effect by negatively impacting affinity for LRP1 CR3-5 while at the same time improving affinity for LRP2 CR89.

The target in assay [12] is T8, LRP1 CR3-5. Described as above.
Excerpt: as §5
The source holds these as a separate data set.

Assay [13] concerns the target B1. In words: solid-phase binding assay, ligand at 80 nM, CR protein coated (FIG. 7). The procedure:
as §1
The apparent dissociation constant for binding of VRAP1 d3 to VLDLR CR78 was determined to be 44±9 nM. […]

Assay [14] has as its target T10, LRP2 CR89 Y1042W V1047D (human, UniProt P98164 1022-1105).
T10 construct: also called WDWR
T10 sequence: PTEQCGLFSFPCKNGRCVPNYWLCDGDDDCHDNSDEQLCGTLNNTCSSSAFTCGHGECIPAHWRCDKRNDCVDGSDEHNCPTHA
The assay is described as follows: solid-phase binding assay, CR protein coated, anti-RAP detection. The procedure: as §1, §2

The text below walks through data of patent US20180118802A1 (published 2018).

Where two headings read alike, the source gives them in different places. Where only a bound is given, the exact number is not on record here.

T8 sequence (Q07954 852-973, form in doubt): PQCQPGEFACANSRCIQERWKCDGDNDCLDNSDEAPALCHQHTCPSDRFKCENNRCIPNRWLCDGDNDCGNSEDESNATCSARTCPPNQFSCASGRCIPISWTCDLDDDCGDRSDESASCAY
T2 sequence (P98164 1025-1102): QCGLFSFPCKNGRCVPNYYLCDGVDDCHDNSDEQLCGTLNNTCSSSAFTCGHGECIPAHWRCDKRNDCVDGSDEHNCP

As usually defined, the Kd is a measure of binding affinity in units of concentration. Higher therefore signals weaker binding. On to B1, for which the “% max bind” value in assay [1] was determined as 15%; in [2], 7%; in [3] it was 16%; in [4], 6%; in [5], 9%; in assay [6], 6%. Besides, the “% max bind” value in assay [7] is 7%. The Kd in assay [8] was 16 nM; in assay [9], 16 nM; in [11], more than 300 nM; in assay [12] it was 11 nM. The “% max” value is 76% in assay [9] and 5% in assay [10].

B2: MAT CR12 (other)
chain: PCPGQFTCRTGRCIRKELRCDGWADCTDHSDELNCSCDAGHQFTCKNKFCKPLFWVCDSVNDCGDNSDEQGCS
notes: also called ST14 CR12; not shown: N-terminal hexahistidine/S-peptide tag of pET30(+)a
As to B2, the binding result in assay [13] was “no binding (tested: 80 nM)”.

B3: MegaRAP1 d3 (ligand, not shown: small tags and cut ends)
chain: LDRLRRVSHQGYTTEAKFEEPRVIDLWDLAQSANLTDKELEAFREELKYFKAKIEAHNHYQKQLEIAHEELRHAESVGDGERVSRSREKHALLEGRTKELGYTVKKHLQDLSGRISRAR
notes: also called RAPv2A d3; RAP v2
Regarding B3, the binding result in assay [1], in assay [14], in assay [3], in [4], in [5] and in assay [6] was “no binding” each time. The “% max bind” value in [5] is 5%.
